Measurements as given in article PMC3431625 (The Journal of Biological Chemistry, 2012).

What was measured:
[1] = target: Mouse laminin isolated from Engelbreth-Holm-Swarm mouse sarcoma (mouse, UniProt P19137;P02469;P02468); test: ELISA
Collagen type I = Collagen type I (UniProt P02453;P02465); test: ELISA
Chain of Collagen type I (P02453 162-1217, chain 1 of 2): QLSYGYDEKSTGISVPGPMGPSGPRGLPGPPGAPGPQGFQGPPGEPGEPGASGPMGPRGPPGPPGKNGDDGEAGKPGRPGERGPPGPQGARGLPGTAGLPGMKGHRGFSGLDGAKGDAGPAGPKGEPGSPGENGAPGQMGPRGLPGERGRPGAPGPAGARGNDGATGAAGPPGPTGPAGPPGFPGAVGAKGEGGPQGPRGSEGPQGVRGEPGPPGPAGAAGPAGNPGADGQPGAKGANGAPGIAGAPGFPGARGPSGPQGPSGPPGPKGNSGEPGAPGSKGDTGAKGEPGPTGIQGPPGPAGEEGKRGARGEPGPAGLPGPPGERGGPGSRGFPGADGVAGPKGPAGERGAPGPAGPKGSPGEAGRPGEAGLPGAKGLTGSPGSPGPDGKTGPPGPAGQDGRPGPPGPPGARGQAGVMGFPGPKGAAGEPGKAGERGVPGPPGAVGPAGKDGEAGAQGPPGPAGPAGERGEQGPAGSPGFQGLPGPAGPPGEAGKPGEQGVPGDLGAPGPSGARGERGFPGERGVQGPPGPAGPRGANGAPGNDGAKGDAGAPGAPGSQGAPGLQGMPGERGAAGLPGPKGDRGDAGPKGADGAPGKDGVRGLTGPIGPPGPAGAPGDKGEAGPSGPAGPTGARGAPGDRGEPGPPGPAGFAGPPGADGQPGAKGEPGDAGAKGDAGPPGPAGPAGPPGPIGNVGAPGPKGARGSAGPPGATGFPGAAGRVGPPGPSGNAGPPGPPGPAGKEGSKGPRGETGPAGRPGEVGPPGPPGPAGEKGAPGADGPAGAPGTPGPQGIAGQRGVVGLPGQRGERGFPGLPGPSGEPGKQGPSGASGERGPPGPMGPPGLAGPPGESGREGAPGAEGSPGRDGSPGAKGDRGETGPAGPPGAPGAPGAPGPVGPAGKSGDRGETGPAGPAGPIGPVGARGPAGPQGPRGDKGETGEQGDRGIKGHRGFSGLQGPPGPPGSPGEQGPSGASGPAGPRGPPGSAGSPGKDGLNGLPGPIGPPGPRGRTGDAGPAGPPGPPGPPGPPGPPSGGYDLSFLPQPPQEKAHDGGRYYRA
Chain of Collagen type I (P02465 80-1117, chain 2 of 2): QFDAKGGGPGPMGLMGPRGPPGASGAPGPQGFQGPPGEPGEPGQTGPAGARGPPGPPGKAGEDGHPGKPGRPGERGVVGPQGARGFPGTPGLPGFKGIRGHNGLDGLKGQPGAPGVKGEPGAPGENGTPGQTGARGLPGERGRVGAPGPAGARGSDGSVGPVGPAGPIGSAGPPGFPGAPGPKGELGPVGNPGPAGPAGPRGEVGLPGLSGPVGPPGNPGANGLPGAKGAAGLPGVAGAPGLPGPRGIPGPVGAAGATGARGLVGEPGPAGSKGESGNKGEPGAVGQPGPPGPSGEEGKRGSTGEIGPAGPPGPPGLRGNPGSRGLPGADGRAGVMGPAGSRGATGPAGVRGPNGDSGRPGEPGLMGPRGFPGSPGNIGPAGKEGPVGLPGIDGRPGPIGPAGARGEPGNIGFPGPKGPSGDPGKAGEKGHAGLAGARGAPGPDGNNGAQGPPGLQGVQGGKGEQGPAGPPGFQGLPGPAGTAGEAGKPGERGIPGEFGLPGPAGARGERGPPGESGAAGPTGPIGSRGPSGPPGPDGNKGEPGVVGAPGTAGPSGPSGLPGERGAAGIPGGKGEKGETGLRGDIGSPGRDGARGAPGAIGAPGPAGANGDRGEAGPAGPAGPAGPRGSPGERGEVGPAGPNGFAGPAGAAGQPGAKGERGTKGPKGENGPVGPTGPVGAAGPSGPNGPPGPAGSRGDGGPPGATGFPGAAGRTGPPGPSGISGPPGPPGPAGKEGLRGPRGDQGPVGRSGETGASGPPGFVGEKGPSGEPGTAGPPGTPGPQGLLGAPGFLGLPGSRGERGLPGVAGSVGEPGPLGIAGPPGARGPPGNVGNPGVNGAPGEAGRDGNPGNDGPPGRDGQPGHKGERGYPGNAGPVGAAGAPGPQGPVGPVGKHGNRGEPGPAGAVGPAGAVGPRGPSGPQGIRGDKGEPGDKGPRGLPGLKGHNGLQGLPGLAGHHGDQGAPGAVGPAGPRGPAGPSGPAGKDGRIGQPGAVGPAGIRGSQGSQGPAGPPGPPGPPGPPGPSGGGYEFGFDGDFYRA

B1: Recombinant bovine opticin (natural protein)
chain: ASLSEEREGDPYAILHLGDYVLSLDNYDEVIDPSNYDELIDYGDQLPQVKGTSLASLTRTRFTQSTEAARTLPSNPTTARPPTLGLLAAPANHGLPTCLICVCLGSSVYCDDADLENIPPLPQTTAYLYARFNRISHIRAGDFKGLTKLKRIDLSGNSISSIDDKALRLLPALRDLILPENKLVALPTLPTSIEVLDVRMNRLQSSGIQPEAFRALEKLQFLYLADNLLDAIPPSLPLSLRSLHLQNNMIETMQRDAFCDAEEHRHTRRPLEDIRLDGNPINLSLFPSAYFCLPRLPTGRFV
With B1 the Kd [1] was 40 nM and the Kd (Collagen type I) was 60 nM.
